{"source": "paper PMC4068969", "about": "“SacPox from the thermoacidophilic crenarchaeon Sulfolobus acidocaldarius is a proficient lactonase” (BMC Research Notes, 2014)", "key": {"SacPox [1]": {"target": "T1, SacPox (Sulfolobus acidocaldarius, UniProt Q4J6Z8)", "T1 construct": "gene pte; recombinant in E. coli BL21(DE3)-pGro7/GroEL with CoCl2", "experiment": "p-nitrophenolate release, […] nm", "assay_type": "biochemical", "conditions": "50 mM HEPES pH 8, 150 mM NaCl, 0.2 mM CoCl2, 25°C, cobalt cofactor; for Km: no SDS"}, "SacPox [2]": {"target": "T1, SacPox", "assay_type": "biochemical", "conditions": "2.5 mM Bicine pH 8.3, 150 mM NaCl, 0.2 mM CoCl2, 0.5% DMSO, 25°C; cobalt cofactor"}, "SacPox [3]": {"target": "T1, SacPox", "experiment": "phenyl acetate hydrolysis, […] nm", "assay_type": "biochemical", "conditions": "50 mM HEPES pH 8, 150 mM NaCl, 0.2 mM CoCl2, 25°C; cobalt cofactor"}, "CCCCCC1CCC(=O)O1": {"system": "CCCCCC1CCC(=O)O1", "experiment": "purified protein", "assay_type": "biochemical, Sulfolobus acidocaldarius", "conditions": "2.5 mM Bicine pH 8.3, 150 mM NaCl, 0.2 mM CoCl2, 0.5% DMSO, 25°C, cobalt cofactor"}, "CCCCCCC1CCCC(=O)O1": {"system": "CCCCCCC1CCCC(=O)O1", "experiment": "purified protein", "assay_type": "biochemical, Sulfolobus acidocaldarius", "conditions": "2.5 mM Bicine pH 8.3, 150 mM NaCl, 0.2 mM CoCl2, 0.5% DMSO, 25°C, cobalt cofactor"}, "CCCCC1CCCC(=O)O1": {"system": "CCCCC1CCCC(=O)O1", "experiment": "purified protein", "assay_type": "biochemical, Sulfolobus acidocaldarius", "conditions": "2.5 mM Bicine pH 8.3, 150 mM NaCl, 0.2 mM CoCl2, 0.5% DMSO, 25°C, cobalt cofactor"}, "CCCCCCCCC1CCC(=O)O1": {"system": "CCCCCCCCC1CCC(=O)O1", "experiment": "purified protein", "assay_type": "biochemical, Sulfolobus acidocaldarius", "conditions": "2.5 mM Bicine pH 8.3, 150 mM NaCl, 0.2 mM CoCl2, 0.5% DMSO, 25°C, cobalt cofactor"}, "CCCC1CCC(=O)O1": {"system": "CCCC1CCC(=O)O1", "experiment": "purified protein", "assay_type": "biochemical, Sulfolobus acidocaldarius", "conditions": "2.5 mM Bicine pH 8.3, 150 mM NaCl, 0.2 mM CoCl2, 0.5% DMSO, 25°C, cobalt cofactor"}, "[4]": {"system": "CCCCCCCC(=O)CC(=O)N[C@H]1CCOC1=O", "experiment": "purified protein", "assay_type": "biochemical, Sulfolobus acidocaldarius", "conditions": "2.5 mM Bicine pH 8.3, 150 mM NaCl, 0.2 mM CoCl2, 0.5% DMSO, 25°C, cobalt cofactor"}, "CCCCCCCC(=O)NC1CCOC1=O": {"system": "CCCCCCCC(=O)NC1CCOC1=O", "experiment": "purified protein", "assay_type": "biochemical, Sulfolobus acidocaldarius", "conditions": "2.5 mM Bicine pH 8.3, 150 mM NaCl, 0.2 mM CoCl2, 0.5% DMSO, 25°C, cobalt cofactor"}, "[5]": {"system": "CCCCCC(=O)CC(=O)N[C@H]1CCOC1=O", "experiment": "purified protein", "assay_type": "biochemical, Sulfolobus acidocaldarius", "conditions": "2.5 mM Bicine pH 8.3, 150 mM NaCl, 0.2 mM CoCl2, 0.5% DMSO, 25°C, cobalt cofactor"}, "CCCCCCCC1CCCC(=O)O1": {"system": "CCCCCCCC1CCCC(=O)O1", "experiment": "purified protein", "assay_type": "biochemical, Sulfolobus acidocaldarius", "conditions": "2.5 mM Bicine pH 8.3, 150 mM NaCl, 0.2 mM CoCl2, 0.5% DMSO, 25°C, cobalt cofactor"}}, "note": "Where two headings read alike, the source gives them in different places."}
{"compound": "CC(=O)Oc1ccc([N+](=O)[O-])cc1", "note": "[pNP-acetate]", "values": [{"measurement": "K M (μM)", "setting": "SacPox [1]", "value": "2 107 ± 313 μM"}]}
{"compound": "O=C1CCCCCO1", "note": "[ϵ caprolactone]", "values": [{"measurement": "K M (μM)", "setting": "SacPox [2]", "value": "1 031 ± 83 μM"}]}
{"compound": "COP(=O)(OC)Oc1ccc([N+](=O)[O-])cc1", "note": "[Methyl Paraoxon]", "values": [{"measurement": "Km", "setting": "SacPox [1]", "value": "278 ± 40", "unit": "µM"}]}
{"compound": "CC(=O)Oc1ccccc1", "note": "[Phenyl-acetate]", "values": [{"measurement": "K M (μM)", "setting": "SacPox [3]", "value": "8 181 ± 1750 μM"}]}
{"compound": "SacPox (Sulfolobus acidocaldarius DSM 639)", "values": [{"measurement": "Km", "setting": "CCCCCC1CCC(=O)O1", "value": "109 ± 19", "unit": "µM"}, {"measurement": "kcat", "setting": "CCCCCC1CCC(=O)O1", "value": "2.64 ± 0.07", "unit": "s⁻¹"}, {"measurement": "kcat/Km", "setting": "CCCCCC1CCC(=O)O1", "value": "24400 ± 4400", "unit": "M⁻¹ s⁻¹"}, {"measurement": "Km", "setting": "CCCCCCC1CCCC(=O)O1", "value": "168 ± 37", "unit": "µM"}, {"measurement": "kcat", "setting": "CCCCCCC1CCCC(=O)O1", "value": "1.05 ± 0.05", "unit": "s⁻¹"}, {"measurement": "kcat/Km", "setting": "CCCCCCC1CCCC(=O)O1", "value": "6220 ± 1400", "unit": "M⁻¹ s⁻¹"}, {"measurement": "Km", "setting": "CCCCC1CCCC(=O)O1", "value": "348 ± 53", "unit": "µM"}, {"measurement": "kcat", "setting": "CCCCC1CCCC(=O)O1", "value": "4.55 ± 0.21", "unit": "s⁻¹"}, {"measurement": "kcat/Km", "setting": "CCCCC1CCCC(=O)O1", "value": "13100 ± 2100", "unit": "M⁻¹ s⁻¹"}, {"measurement": "Km", "setting": "CCCCCCCCC1CCC(=O)O1", "value": "242 ± 60", "unit": "µM"}, {"measurement": "kcat", "setting": "CCCCCCCCC1CCC(=O)O1", "value": "0.53 ± 0.03", "unit": "s⁻¹"}, {"measurement": "kcat/Km", "setting": "CCCCCCCCC1CCC(=O)O1", "value": "2210 ± 570", "unit": "M⁻¹ s⁻¹"}, {"measurement": "Km", "setting": "CCCC1CCC(=O)O1", "value": "388 ± 62", "unit": "µM"}, {"measurement": "kcat", "setting": "CCCC1CCC(=O)O1", "value": "10.2 ± 0.5", "unit": "s⁻¹"}, {"measurement": "kcat/Km", "setting": "CCCC1CCC(=O)O1", "value": "26400 ± 4400", "unit": "M⁻¹ s⁻¹"}, {"measurement": "Km", "setting": "[4]", "value": "213 ± 33", "unit": "µM"}, {"measurement": "kcat", "setting": "[4]", "value": "1.03 ± 0.04", "unit": "s⁻¹"}, {"measurement": "kcat/Km", "setting": "[4]", "value": "4880 ± 770", "unit": "M⁻¹ s⁻¹"}, {"measurement": "Km", "setting": "CCCCCCCC(=O)NC1CCOC1=O", "value": "178 ± 26", "unit": "µM"}, {"measurement": "kcat", "setting": "CCCCCCCC(=O)NC1CCOC1=O", "value": "0.94 ± 0.02", "unit": "s⁻¹"}, {"measurement": "kcat/Km", "setting": "CCCCCCCC(=O)NC1CCOC1=O", "value": "5280 ± 770", "unit": "M⁻¹ s⁻¹"}, {"measurement": "Km", "setting": "[5]", "value": "836 ± 178", "unit": "µM"}, {"measurement": "kcat", "setting": "[5]", "value": "0.89 ± 0.07", "unit": "s⁻¹"}, {"measurement": "kcat/Km", "setting": "[5]", "value": "1070 ± 250", "unit": "M⁻¹ s⁻¹"}, {"measurement": "Km", "setting": "CCCCCCCC1CCCC(=O)O1", "value": "185 ± 27", "unit": "µM"}, {"measurement": "kcat", "setting": "CCCCCCCC1CCCC(=O)O1", "value": "3.34 ± 0.07", "unit": "s⁻¹"}, {"measurement": "kcat/Km", "setting": "CCCCCCCC1CCCC(=O)O1", "value": "18100 ± 2700", "unit": "M⁻¹ s⁻¹"}]}
{"compound": "CCOP(=O)(OCC)Oc1ccc([N+](=O)[O-])cc1", "note": "[Paraoxon]", "values": [{"measurement": "Km", "setting": "SacPox [1]", "value": "434 ± 54", "unit": "µM"}]}
